Measured values as given in publication doi:10.1101/315713 (bioRxiv, 2018).

B1: Dipeptidase 3 (DPEP3), native, from testicular tissue and spermatozoa lysates (natural protein, UniProt Q9H4B8 36-463, looked up)
chain: AETTPGAPRALSTLGSPSLFTTPGVPSALTTPGLTTPGTPKTLDLRGRAQALMRSFPLVDGHNDLPQVLRQRYKNVLQDVNLRNFSHGQTSLDRLRDGLVGAQFWSASVSCQSQDQTAVRLALEQIDLIHRMCASYSELELVTSAEGLNSSQKLACLIGVEGGHSLDSSLSVLRSFYVLGVRYLTLTFTCSTPWAESSTKFRHHMYTNVSGLTSFGEKVVEELNRLGMMIDLSYASDTLIRRVLEVSQAPVIFSHSAARAVCDNLLNVPDDILQLLKKNGGIVMVTLSMGVLQCNLLANVSTVADHFDHIRAVIGSEFIGIGGNYDGTGRFPQGLEDVSTYPVLIEELLSRSWSEEELQGVLRGNLLRVFRQVEKVREESRAQSPVEAEFPYGQLSTSCHSHLVPQNGHQATHLEVTKQPTNRVPWRS
B2: DPEP3, free soluble native form in seminal plasma (natural protein, human (endogenous in seminal plasma), UniProt Q9H4B8 36-463, looked up)
chain: B1 chain

Biological target: the molecule itself

Protein | stoichiometry N
B1 | 2
B2 | 2
